Source: patent publication US20260216326A1 (PROMETHEUS BIOSCIENCES, published 2026)
Where a chain is given by its changes, count along the chain named. Values belong to the binder of their own block, whether it stands above or below them.

Target: T1, human TL1A (Fitzgerald #30R-AT070) (human, UniProt O95150 72-251, limits assumed)
T1 construct: Coated on the ELISA plate at 1 ug/mL; also called TNFSF15
T1 sequence (looked up): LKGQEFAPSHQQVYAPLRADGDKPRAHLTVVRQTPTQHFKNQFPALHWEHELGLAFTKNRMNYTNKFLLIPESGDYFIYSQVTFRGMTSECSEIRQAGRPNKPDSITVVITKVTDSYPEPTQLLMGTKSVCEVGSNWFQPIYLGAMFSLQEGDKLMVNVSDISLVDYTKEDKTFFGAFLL
Assay: ELISA titration, coated human TL1A, culture supernatant

B1: A117 (antibody, human IgG1, V domains shown)
VH: QVQLVQSGAEVKKPGASVKVSCKASGFDIQDTYMHWVRQAPGQGLEWMGRIDPASGHIKYDPKFQGRVTMTRDTSTSTVYMELSSLRSEDTAVYYCARSGGLPDWWGQGTTVTVSS
VL: EIVLTQSPGTLSLSPGERATLSCRASSSVSYMYWYQQKPGQAPRPWIYATSNLASGIPDRFSGSGSGTDFTLTISRLEPEDFAVYYCQQWEGNPRTFGGGTKLEIK
notes: human IgG1/kappa (pFuse vectors), culture supernatant
Kd: 0.094 nM

B2: A34 (antibody, human IgG1, V domains shown)
VH: B1 VH with A40R, M48I, I58T, G66V, V68A, M70I, R72T, V79A, M81L, W105V
VL: B1 VL with L13A, L21M, I57V, F70Y, L77V, E91S
notes: as for B1
Kd: < 0.05 nM

B3: A37 (antibody, human IgG1, V domains shown)
VH: B1 VH with R38K, A40R, I58T, G66V, V68A, M70I, R72T, V79A, M81L, W105V
VL: B1 VL with L13A, L21M, I57V, F70Y, L77V, E91S
notes: as for B1
Kd: 0.034 nM

B4: A41 (antibody, human IgG1, V domains shown)
VH: B1 VH with R38K, A40R, M48I, I58T, G66V, M70I, R72T, V79A, M81L, W105V
VL: B1 VL with L13A, L21M, I57V, F70Y, L77V, E91S
notes: as for B1
Kd: 0.016 nM

B5: A42 (antibody, human IgG1, V domains shown)
VH: B1 VH with R38K, A40R, M48I, I58T, G66V, V68A, R72T, V79A, M81L, W105V
VL: B1 VL with L13A, L21M, I57V, F70Y, L77V, E91S
notes: as for B1
Kd: < 0.05 nM

B6: A40 (antibody, human IgG1, V domains shown)
VH: B1 VH with R38K, A40R, M48I, I58T, G66V, V68A, M70I, R72T, W105V
VL: B1 VL with L13A, L21M, I57V, F70Y, L77V, E91S
notes: as for B1
Kd: < 0.05 nM

B7: A38 (antibody, human IgG1, V domains shown)
VH: B1 VH with R38K, A40R, M48I, I58T, G66V, V68A, M70I, R72T, M81L, W105V
VL: B1 VL with L13A, L21M, I57V, F70Y, L77V, E91S
notes: as for B1
Kd: 0.103 nM

B8: A36 (antibody, human IgG1, V domains shown)
VH: B1 VH with M48I, I58T, G66V, V68A, M70I, R72T, V79A, M81L, W105V
VL: B1 VL with L13A, L21M, I57V, F70Y, L77V, E91S
notes: as for B1
Kd: < 0.05 nM

B9: A39 (antibody, human IgG1, V domains shown)
VH: B1 VH with R38K, A40R, M48I, I58T, G66V, V68A, M70I, R72T, V79A, W105V
VL: B1 VL with L13A, L21M, I57V, F70Y, L77V, E91S
notes: as for B1
Kd: 0.125 nM

B10: A30 (antibody, human IgG1, V domains shown)
VH: QVQLVQSGAEVKKPGASVKVSCKASGFDIQDTYMHWVKQRPGQGLEWIGRIDPASGHTKYDPKFQVRATITTDTSTSTAYLELSSLRSEDTAVYYCARSGGLPDVWGQGTTVTVSS
VL: B1 VL with P45L, W46L, E91K
notes: as for B1
Kd: 0.077 nM

B11: A35 (antibody, human IgG1, V domains shown)
VH: B10 VH with R40A
VL: B1 VL with L13A, L21M, I57V, F70Y, L77V, E91S
notes: as for B1
Kd: 0.072 nM

B13: A125 (antibody, human IgG1, V domains shown)
VH: B10 VH with I48M, T72R
VL: B1 VL with P45L, W46L, E91K
notes: as for B1
Kd: 0.116 nM

B14: A123 (antibody, human IgG1, V domains shown)
VH: B10 VH with K38R, A68V, T72R
VL: B1 VL with P45L, W46L, E91K
notes: as for B1
Kd: 0.104 nM

B17: A119 (antibody, human IgG1, V domains shown)
VH: B1 VH with D52E, I58T
VL: B1 VL
notes: as for B1
Kd: 0.087 nM

B20: A122 (antibody, human IgG1, V domains shown)
VH: B10 VH with K38R, T72R
VL: B1 VL with P45L, W46L, E91K
notes: as for B1
Kd: 0.112 nM

B21: A121 (antibody, human IgG1, V domains shown)
VH: B10 VH with K38R, I48M
VL: B1 VL with P45L, W46L, E91K
notes: as for B1
Kd: 0.106 nM

B25: A124 (antibody, human IgG1, V domains shown)
VH: B10 VH with K38R, A68V
VL: B1 VL with P45L, W46L, E91K
notes: as for B1
Kd: 0.091 nM

B28: A120 (antibody, human IgG1, V domains shown)
VH: B1 VH with D52E, I58V
VL: B1 VL
notes: as for B1
Kd: 0.085 nM

B39: A118 (antibody, human IgG1, V domains shown)
VH: B1 VH with M48I
VL: B1 VL
notes: as for B1
Kd: 0.083 nM

Results, then the binder that gave them:

Kd: 0.049 nM
B12: A153 (antibody, human IgG1, V domains shown)
VH: B1 VH with D52E, V79A
VL: B1 VL
notes: as for B1

Kd: 0.065 nM
B15: A146 (antibody, human IgG1, V domains shown)
VH: B1 VH with R38K, D52E
VL: B1 VL with W46L
notes: as for B1

Kd: 0.056 nM
B16: A135 (antibody, human IgG1, V domains shown)
VH: B1 VH with D52E, V79A
VL: B1 VL with W46L, E91K
notes: as for B1

Kd: 0.075 nM
B18: A130 (antibody, human IgG1, V domains shown)
VH: B1 VH with D52E, G66V
VL: B1 VL
notes: as for B1

Kd: 0.07 nM
B19: A127 (antibody, human IgG1, V domains shown)
VH: B10 VH with I48M, A68V
VL: B1 VL with P45L, W46L, E91K
notes: as for B1

Kd: 0.069 nM
B22: A138 (antibody, human IgG1, V domains shown)
VH: B1 VH with D52E, G66V, V68A
VL: B1 VL with P45L, W46L, E91S, G92R
notes: as for B1

Kd: 0.126 nM
B23: A142 (antibody, human IgG1, V domains shown)
VH: B10 VH with K38R, I48M, A68V, T72R
VL: B1 VL with P45L, W46L
notes: as for B1

Kd: 0.057 nM
B24: A151 (antibody, human IgG1, V domains shown)
VH: B1 VH with D52E, G66V, V68A, M70I
VL: B1 VL with W46L
notes: as for B1

Kd: 0.099 nM
B26: A129 (antibody, human IgG1, V domains shown)
VH: B10 VH with K38R, I48M, A68V
VL: B1 VL with P45L, W46L, E91K
notes: as for B1

Kd: 0.066 nM
B27: A154 (antibody, human IgG1, V domains shown)
VH: B1 VH with R38K, D52E
VL: B1 VL
notes: as for B1

Kd: 0.05 nM
B29: A137 (antibody, human IgG1, V domains shown)
VH: B1 VH with D52E, G66V
VL: B1 VL with P45L, W46L, E91S, G92R
notes: as for B1

Kd: 0.058 nM
B30: A152 (antibody, human IgG1, V domains shown)
VH: B1 VH with D52E, V68A, M70I, R72T
VL: B1 VL with W46L
notes: as for B1

Kd: 0.055 nM
B31: A134 (antibody, human IgG1, V domains shown)
VH: B1 VH with D52E, G66V, V68A
VL: B1 VL with W46L, E91K
notes: as for B1

Kd: 0.073 nM
B32: A140 (antibody, human IgG1, V domains shown)
VH: B10 VH with K38R, I48M, A68V
VL: B1 VL with P45L, W46L
notes: as for B1

Kd: 0.053 nM
B33: A136 (antibody, human IgG1, V domains shown)
VH: B1 VH with R38K, D52E
VL: B1 VL with W46L, E91K
notes: as for B1

Kd: 0.063 nM
B34: A147 (antibody, human IgG1, V domains shown)
VH: B1 VH with R38K, A40R, D52E
VL: B1 VL with W46L
notes: as for B1

Kd: 0.074 nM
B35: A139 (antibody, human IgG1, V domains shown)
VH: B10 VH with K38R, I48M, A68V
VL: B1 VL with P45L, W46L, E91S, G92R
notes: as for B1

Kd: 0.062 nM
B36: A132 (antibody, human IgG1, V domains shown)
VH: B1 VH with D52E, V68A
VL: B1 VL with W46L, E91K
notes: as for B1

Kd: 0.085 nM
B37: A143 (antibody, human IgG1, V domains shown)
VH: B1 VH with D52E
VL: B1 VL with P45L, W46L
notes: as for B1

Kd: 0.048 nM
B38: A149 (antibody, human IgG1, V domains shown)
VH: B1 VH with D52E, G66V, V68A
VL: B1 VL with W46L
notes: as for B1

Kd: 0.07 nM
B40: A145 (antibody, human IgG1, V domains shown)
VH: B1 VH with D52E, V79A
VL: B1 VL with W46L
notes: as for B1

Kd: 0.111 nM
B41: A128 (antibody, human IgG1, V domains shown)
VH: B10 VH with K38R, I48M, A68V, T72R
VL: B1 VL with P45L, W46L, E91K
notes: as for B1

Kd: 0.058 nM
B42: A133 (antibody, human IgG1, V domains shown)
VH: B1 VH with D52E, G66V
VL: B1 VL with W46L, E91K
notes: as for B1

Kd: 0.059 nM
B43: A150 (antibody, human IgG1, V domains shown)
VH: B1 VH with D52E, V68A
VL: B1 VL with W46L
notes: as for B1

Kd: 0.123 nM
B44: A126 (antibody, human IgG1, V domains shown)
VH: B10 VH with I48M, A68V, T72R
VL: B1 VL with P45L, W46L, E91K
notes: as for B1

Kd: 0.067 nM
B45: A155 (antibody, human IgG1, V domains shown)
VH: B1 VH with D52E, G66V
VL: B1 VL
notes: as for B1

Kd: 0.108 nM
B46: A141 (antibody, human IgG1, V domains shown)
VH: B10 VH with K38R, I48M, A68V, T72R
VL: B1 VL with P45L, W46L, E91S, G92R
notes: as for B1
